The values below come from paper PMC8538552.

The target in the experiment is protein A from Staphylococcus aureus (Staphylococcus aureus) (UniProt P38507). Briefly: fluorescence intensity of the solution left after immobilization (plate reader); solutions used for functionalization with FITC antibody analysed after the immobilization process on substrate with and without protein A; VICTOR3 plate reader; calibration curve to quantify the antibody that remained in solution.

A value given as a limit tells only on which side of the number the result lay.

Take “CD4 (VIT4)-FITC mouse anti-human antibody (Miltenyi Biotec)”: the percent of the starting antibody solution immobilised is less than 60%.
